The values below come from patent US20250281611A1 (BIOSCEPTRE AUST, published 2025).

To fix the notation:
B1: CD33 BRIDGE variant B8 (Fab, V domains shown)
VH: QVQLVQSGAEVKKPGSSVKVSCKASGYTFTDYNMHWVRQAPGQGLEWIGYIYPYNGGTGYNQKFKSKATITADESTNTAYMELSSLRSEDTAVYYCARGRPAMDYWGQGTLVTVSS
VL: DIQMTQSPSSLSASVGDRVTITCRASESVDNYGISFMNWFQQKPGKAPKLLIYAASNQGSGVPSRFSGSGSGTDFTLTISSLQPDDFATYYCQQSKEVPWTFGQGTKVEIKR
notes: Lintuzumab-based Fab bridging molecule
B2: CD33 BRIDGE variant B9 (Fab, V domains shown)
VH: B1 VH
VL: B1 VL
notes: as for B1
B3: CD33 BRIDGE variant B13 (Fab, V domains shown)
VH: B1 VH
VL: B1 VL
notes: as for B1
B4: CD33 BRIDGE variant B14 (Fab, V domains shown)
VH: B1 VH
VL: B1 VL
notes: as for B1
B5: CD33 BRIDGE variant B5 (Fab)
light: GHNYTTRNILPGLNITSTFHKTSGSGKGSEPKSSDKTHTDIQMTQSPSSLSASVGDRVTITCRASESVDNYGISFMNWFQQKPGKAPKLLIYAASNQGSGVPSRFSGSGSGTDFTLTISSLQPDDFATYYCQQSKEVPWTFGQGTKVEIKRTVAAPSVFIFPPSDEQLKSGTASVVCLLNNFYPREAKVQWKVDNALQSGNSQESVTEQDSKDSTYSLSSTLTLSKADYEKHKVYACEVTHQGLSSPVTKSFNRGECHHHHHH
heavy: QVQLVQSGAEVKKPGSSVKVSCKASGYTFTDYNMHWVRQAPGQGLEWIGYIYPYNGGTGYNQKFKSKATITADESTNTAYMELSSLRSEDTAVYYCARGRPAMDYWGQGTLVTVSSASTKGPSVFPLAPSSKSTSGGTAALGCLVKDYFPEPVTVSWNSGALTSGVHTFPAVLQSSGLYSLSSVVTVPSSSLGTQTYICNVNHKPSNTKVDKKVEPKSCHHHHHH
notes: as for B1
B6: CD33 BRIDGE variant B12 (Fab)
light: GHNYTTRNILPGLNITSTFHKTSGSGKGGGGSEPKSSDKTHTGSDIQMTQSPSSLSASVGDRVTITCRASESVDNYGISFMNWFQQKPGKAPKLLIYAASNQGSGVPSRFSGSGSGTDFTLTISSLQPDDFATYYCQQSKEVPWTFGQGTKVEIKRTVAAPSVFIFPPSDEQLKSGTASVVCLLNNFYPREAKVQWKVDNALQSGNSQESVTEQDSKDSTYSLSSTLTLSKADYEKHKVYACEVTHQGLSSPVTKSFNRGECHHHHHH
heavy: B5 heavy
notes: as for B1
B7: CD33 BRIDGE variant B6 (Fab)
light: GHNYTTRNILPGLNITSTFHKTSGSGKGGGSEPKSSDKTHTDIQMTQSPSSLSASVGDRVTITCRASESVDNYGISFMNWFQQKPGKAPKLLIYAASNQGSGVPSRFSGSGSGTDFTLTISSLQPDDFATYYCQQSKEVPWTFGQGTKVEIKRTVAAPSVFIFPPSDEQLKSGTASVVCLLNNFYPREAKVQWKVDNALQSGNSQESVTEQDSKDSTYSLSSTLTLSKADYEKHKVYACEVTHQGLSSPVTKSFNRGECHHHHHH
heavy: B5 heavy
notes: as for B1
B8: CD33 BRIDGE variant B10 (Fab)
light: GHNYTTRNILPGLNITSTFHKTSGSGKEPKSSDKTHTGSDIQMTQSPSSLSASVGDRVTITCRASESVDNYGISFMNWFQQKPGKAPKLLIYAASNQGSGVPSRFSGSGSGTDFTLTISSLQPDDFATYYCQQSKEVPWTFGQGTKVEIKRTVAAPSVFIFPPSDEQLKSGTASVVCLLNNFYPREAKVQWKVDNALQSGNSQESVTEQDSKDSTYSLSSTLTLSKADYEKHKVYACEVTHQGLSSPVTKSFNRGECHHHHHH
heavy: B5 heavy
notes: as for B1
B9: CD33 BRIDGE variant B11 (Fab)
light: GHNYTTRNILPGLNITSTFHKTSGSGKGSEPKSSDKTHTGSDIQMTQSPSSLSASVGDRVTITCRASESVDNYGISFMNWFQQKPGKAPKLLIYAASNQGSGVPSRFSGSGSGTDFTLTISSLQPDDFATYYCQQSKEVPWTFGQGTKVEIKRTVAAPSVFIFPPSDEQLKSGTASVVCLLNNFYPREAKVQWKVDNALQSGNSQESVTEQDSKDSTYSLSSTLTLSKADYEKHKVYACEVTHQGLSSPVTKSFNRGECHHHHHH
heavy: B5 heavy
notes: as for B1

T1 sequence (P20138 18-364 limits assumed): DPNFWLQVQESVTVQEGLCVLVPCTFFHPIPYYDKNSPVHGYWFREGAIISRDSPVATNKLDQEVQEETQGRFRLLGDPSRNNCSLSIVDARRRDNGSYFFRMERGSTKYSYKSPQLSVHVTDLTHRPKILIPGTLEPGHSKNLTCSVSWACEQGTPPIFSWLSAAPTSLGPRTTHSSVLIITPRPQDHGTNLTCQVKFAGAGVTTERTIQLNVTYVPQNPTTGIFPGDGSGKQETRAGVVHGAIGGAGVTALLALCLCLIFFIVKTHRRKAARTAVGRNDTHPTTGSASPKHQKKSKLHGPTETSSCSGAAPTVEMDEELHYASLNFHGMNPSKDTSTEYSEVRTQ

The first test has as its target T1, CD33 (UniProt P20138 18-364, limits assumed).
T1 construct: whole, on cells; also called Siglec-3; CD33 on MOLM-13 cells
Nature of the test: flow cytometry, MOLM-13 cells, anti-His-FITC detection, ratio to no bridge. The method, then:
(§1) MOLM-13 cells were incubated with different CD33 BRIDGE variants at saturating concentrations. […] The MFI intensity correlates with the number of secondary antibodies bound to the CD33 BRIDGE variants that are only detected if they are bound to the MOLM-13 cells. MFI: median fluorescence intensity. BLItz: Bio-Layer interferometry (BLI) technology using HIS-tag identification tips. […] The higher the MFIR, the stronger the binding.
(In general: Flow cytometry measures light scatter and fluorescence of single cells or particles in a stream.)
In the case of B1, the “MFIR HisTag FITC” value was 9.75.

Turning to B2, the “MFIR HisTag FITC” value was determined as 9.45.

Consider B3, for which the “MFIR HisTag FITC” value amounted to 10.1.

B4: the “MFIR HisTag FITC” value was found to be 9.97.

Consider B5, for which the “MFIR HisTag FITC” value was 8.75.

Turning to B6, the “MFIR HisTag FITC” value was 9.07.

For B7, the “MFIR HisTag FITC” value was determined as 9.33.

Regarding B8, the “MFIR HisTag FITC” value amounted to 10.2.

On to B9, for which the “MFIR HisTag FITC” value stood at 11.

For another test, the target named is T2, nfP2X7 CAR 1.
T2 construct: Expressed on T cells with truncated EGFR as marker gene; also called anti-nfP2X7 receptor CAR 1; nfP2X7 targeted CAR on EGFR+ T cells
Nature of the test: flow cytometry, CAR T cells, anti-His-FITC, EGFR+ over EGFR- cells. The method, then:
(§2) nfP2X₇ CAR T cells were incubated with different BRiDGE variants at saturating concentrations. […] The MFI intensity correlates with the number of secondary bound antibodies bound to the BRiDGEs that are only detected if they are bound to the CAR T cells. EGFR was used as a marker gene to detect the CAR expression. Thus, the EGFR+ T cell population was defined as the CAR expressing cells and the EGFR− T cell population was defined as the CAR negative subset. MFI: median fluorescence intensity. EGFR: epidermal growth factor receptor. BLItz: Bio-Layer interferometry (BLI) technology using HIS-tag identification tips. HIS-tag MFI Ratio: relative index that is calculated by the testing condition MFI divided by the control MFI, which corresponds to the MFI measured on EGFR+ T cells (defined as CAR positive cells) divided by the MFI measured on the EGFR− T cells (defined as CAR negative cells). […] The higher the MFIR, the stronger the binding.
As for B1, the “HisTag MFI Ratio of EGFR+/EGFR-” value was 2.9.

For B2, the “HisTag MFI Ratio of EGFR+/EGFR-” value turned out to be 2.8.

Take B3: the “HisTag MFI Ratio of EGFR+/EGFR-” value was 2.9.

For the molecule B4, the “HisTag MFI Ratio of EGFR+/EGFR-” value worked out at 2.9.

For the molecule B5, the “HisTag MFI Ratio of EGFR+/EGFR-” value was 2.8.

With B6, the “HisTag MFI Ratio of EGFR+/EGFR-” value amounted to 3.1.

In the case of B7, the “HisTag MFI Ratio of EGFR+/EGFR-” value was 3.4.

As for B8, the “HisTag MFI Ratio of EGFR+/EGFR-” value amounted to 3.5.

On to B9, for which the “HisTag MFI Ratio of EGFR+/EGFR-” value came to 2.7.

The target of the next test is T2, nfP2X7 CAR 1. Nature of the test: flow cytometry, CAR T cells, anti-His-FITC, EGFR+ MFI over background 0.4. Here is the method:
as §2
For the molecule B1, the “HisTag MFI Ratio (background 0.4)” value was 3.4.

B2: the “HisTag MFI Ratio (background 0.4)” value amounted to 2.9.

With B3, the “HisTag MFI Ratio (background 0.4)” value amounted to 3.4.

With B4, the “HisTag MFI Ratio (background 0.4)” value was found to be 3.6.

For B5, the “HisTag MFI Ratio (background 0.4)” value turned out to be 3.5.

Turning to B6, the “HisTag MFI Ratio (background 0.4)” value stood at 3.9.

As for B7, the “HisTag MFI Ratio (background 0.4)” value came to 4.9.

As for B8, the “HisTag MFI Ratio (background 0.4)” value amounted to 5.

Consider B9, for which the “HisTag MFI Ratio (background 0.4)” value was determined as 3.

A further test concerns the target T1, CD33. Kind of test: flow cytometry, MOLM-13 cells, anti-His-FITC detection. The method, then: as §1
Take B1: the “MFI HisTag FITC” value worked out at 6.53.

With B2, the “MFI HisTag FITC” value was found to be 6.33.

As to B3, the “MFI HisTag FITC” value stood at 6.78.

On to B4, for which the “MFI HisTag FITC” value was 6.68.

With B5, the “MFI HisTag FITC” value amounted to 5.86.

Regarding B6, the “MFI HisTag FITC” value came to 6.08.

For the molecule B7, the “MFI HisTag FITC” value came out at 6.25.

On to B8, for which the “MFI HisTag FITC” value stood at 6.86.

Regarding B9, the “MFI HisTag FITC” value is 7.39.

The next test concerns the target T2, nfP2X7 CAR 1. Nature of the test: flow cytometry, nfP2X7 CAR T cells (EGFR+), anti-His-FITC detection. Here is the method:
as §2
As for B1, the “MFI HisTag FITC in EGFR+ Population” value was 1.34.

As to B2, the “MFI HisTag FITC in EGFR+ Population” value was determined as 1.16.

B3: the “MFI HisTag FITC in EGFR+ Population” value worked out at 1.35.

On to B4, for which the “MFI HisTag FITC in EGFR+ Population” value is 1.44.

Turning to B5, the “MFI HisTag FITC in EGFR+ Population” value is 1.4.

B6: the “MFI HisTag FITC in EGFR+ Population” value is 1.55.

As for B7, the “MFI HisTag FITC in EGFR+ Population” value amounted to 1.96.

With B8, the “MFI HisTag FITC in EGFR+ Population” value stood at 1.99.

In the case of B9, the “MFI HisTag FITC in EGFR+ Population” value worked out at 1.2.
